# Reference: US20260085106A1 (AUTOLUS, published 2026)
# Molecular target: T1, caffeine dAb
# T1 construct: Llama-derived
# Assay: peptide phage display panning on the anti-caffeine sdAb, method of Example 6
# T1 sequence (VHH, as listed by the source): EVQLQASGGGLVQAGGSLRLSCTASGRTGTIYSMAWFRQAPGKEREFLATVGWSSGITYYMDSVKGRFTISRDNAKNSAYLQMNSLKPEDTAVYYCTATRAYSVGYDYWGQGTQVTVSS
row,binding result,Binder
1,binds,HTLNKPP (also called HTLNKPP) [SEQ ID NO 12]
2,binds,ACTYLNSAKC [SEQ ID NO 16]
3,binds,DLSIGNH (also called DLSIGNH) [SEQ ID NO 13]
4,binds,HDSPTAA (also called HDSPTAA) [SEQ ID NO 14]
5,binds,YPDVPLA (also called YPDVPLA) [SEQ ID NO 15]
